Measured values from paper PMC11468790, “New Bacterial Aryl Sulfotransferases: Effective Tools for Sulfation of Polyphenols” (Journal of Agricultural and Food Chemistry, 2024).

Tests used:
[1] = test system: O=[N+]([O-])c1ccc(OS(=O)(=O)O)cc1; experiment: purified protein; conditions: varied donor pNPS 0.02-50 mM, acceptor phenol (5-200 mM), 30 °C, activity buffer Tris-glycine pH 8.9
[2] = test system: T1, O=[N+]([O-])c1ccc(OS(=O)(=O)O)cc1; experiment: purified protein; format: biochemical, Desulfosporosinus sp. HMP52; conditions: varied donor pNPS 0.02-50 mM, acceptor phenol (5-200 mM), 30 °C, activity buffer Tris-glycine pH 8.9
T1 construct: C-terminal His6 tag, pET-26b(+) NcoI/SacI, E. coli BL21(DE3)pLysS, IMAC, ca. 70 kDa

With DalAST (Desulfofalx alkaliphila) as the substance, how does the Km [1] read?
The Km was 34 ± 2 µM.

What about the kcat [1] of the same substance?
Its kcat is 0.705 ± 0.007 s⁻¹.

And the kcat/Km [1]?
The kcat/Km was 21000 M⁻¹ s⁻¹.

Which Km [2] does the source give for DsAST (Desulfosporosinus sp. HMP52) here?
The Km was 570 ± 20 µM.

And the kcat [2]?
Its kcat is 32.5 ± 0.4 s⁻¹.

What about the kcat/Km [2] of the same substance?
The kcat/Km was 57000 M⁻¹ s⁻¹.
